Test results published in paper PMC10672034, “Characterization of a Type II L-Asparaginase from the Halotolerant Bacillus subtilis CH11” (Life, 2023).

How the values were obtained:
[1] = target: L-ASNasaZP21 (N-terminally truncated type II L-asparaginase of Bacillus subtilis CH11) (Bacillus subtilis CH11) (UniProt O34482); test: SEC; HiPrep 16/60 Sephacryl S-200 HR, 50 mM Tris-HCl, 100 mM NaCl, pH 8.5, 0.5 mL/min; molecular weight from a standard curve (Protein Standard Mix 15-600 kDa), semi-log graph
[2] = substrate: NC(=O)C[C@H](N)C(=O)O; test: Nessler ammonia assay, Lineweaver-Burk plot; format: biochemical, Bacillus subtilis; details: pH 9, 60 °C, 10 min, 2-14 mM substrate

Molecule | stoichiometry N [1] | Km [2]
L-ASNasaZP21 (N-terminally truncated type II L-asparaginase of Bacillus subtilis CH11) (from UniProt O34482 21-375) (enzyme) | 4 | 
L-ASNasaZP21 (type II L-asparaginase, ansZP21) (Bacillus subtilis subsp. subtilis str. 168; S21P) (protein, signal peptide and Cys20 (first 60 bp) removed; E. coli BL21(DE3)pLysS; homotetramer 155 kDa; forward primer encodes …) PHSPETKESPKEKAQTQKVSSASASEKKDLPNIRILATGGTIAGADQSKTSTTEYKAGVVGVESLIEAVPEMKDIANVSGEQIVNVGSTNIDNKILLKLAKRINHLLASDDVDGIVVTHGTDTLEETAYFLNLTVKSDKPVVIVGSMRPSTAISADGPSNLYNAVKVAGAPEAKGKGTLVVLNDRIASARYVTKTNTTTTDTFKSEEMGFVGTIADDIYFNNEITRKHTKDTDFSVSNLDELPQVDIIYGYQNDGSYLFDAAVKAGAKGIVFAGSGNGSLSDAAEKGADSAVKKGVTVVRSTRTGNGVVTPNQDYAEKDLLASNSLNPQKARMLLMLALTKTNDPQKIQAYFNEY |  | 4.75 mM
